The data set “AUC, CD, self-assembly” concerns the molecule itself. The data set can be described thus: AUC, CD, self-assembly.
The data set “CD, TEM, self-assembly” concerns the molecule itself. The data set can be described thus: CD, TEM, self-assembly.
Data set [1] deals with the molecule itself. As to the kind of experiment: CD, DLS, rheology, self-assembly.
Data set [2] concerns the molecule itself. As to the kind of experiment: AUC, CD, AFM, TEM, self-assembly.
Data set [3] concerns the molecule itself. The data set can be described thus: AUC, CD, DLS, self-assembly.
Data set [4] deals with the molecule itself. The data set can be described thus: CD, TEM, DLS, rheology, self-assembly.
Data set [5] concerns the molecule itself. As to the kind of experiment: CD, TEM, DLS, self-association without fibers.
Data set [6] deals with the molecule itself. The data set can be described thus: CD, TEM, DLS, self-assembly.
Data set [7] concerns the molecule itself. As to the kind of experiment: sedimentation equilibrium AUC, monomer + multimer model, 15000 rpm, 4 C; self-assembly, lower bound. On the procedure: Sedimentation equilibrium experiments were performed at the UW BIF with an XL-A analytical ultracentrifuge from Beckman Coulter (Brea, Calif.) equipped with an An-60 Ti rotor. Samples were prepared at 0.6 mg/mL in 10 mM sodium phosphate buffer, pH 7.0, but were diluted to 0.3 mg/mL prior to the experiment. Sample (100 μL) and matching buffer (110 μL) were placed in a cell with an Epon 12-mm double-sector charcoal-filled centerpiece from Beckman Coulter. Experiments were run at 4° C. for more than 7 days at speeds of 8.8, 15, 25, 36, and 60 k rpm, and gradients recorded at 231 nm were monitored until superimposable 4 h apart. A buffer density of 1.0011 g/mL and a partial specific volume of 0.6955 mL/g calculated based on amino-acid content was used for analysis. Equilibrium gradients at 4° C. were modeled as single and multiple non-interacting species through nonlinear least-squares fits to gradient data. Analysis was performed with programs written for IGOR PRO software from WaveMetrics (Lake Oswego, Oreg.) by Dr. D. R. McCaslin (UW BIF). Non-sedimenting baselines between 0.04-0.07 OD were applied for all samples during analysis.

Data set [8] deals with the molecule itself. The data set can be described thus: CD, TEM, DLS, self-assembly of the disulfide-linked dimer.
The data set “CD, DLS, self-assembly” concerns the molecule itself. The data set can be described thus: CD, DLS, self-assembly.

Non-standard residues stand in square brackets, D forms with d. No end group written: not given here. Hyp = O=C(O)[C@@H]1C[C@@H](O)CN1

PKGPKGPKGP[Hyp]GP[Hyp]GD[Hyp]GD[Hyp]GD[Hyp]GP[Hyp]GP[Hyp]GP[Hyp]G (nT=11) [3sbG-KDO]: the binding result in the data set “AUC, CD, self-assembly” is given as “binds”. On to P[Hyp]GP[Hyp]GP[Hyp]GPKGPKGPKGP[Hyp]GP[Hyp]GD[Hyp]GD[Hyp]GD[Hyp]G (nT=11) [3sbG-OKD], for which, in the data set “CD, TEM, self-assembly”, the binding result is recorded as “binds”. With P[Hyp]GP[Hyp]GP[Hyp]GPKGPKGPKGP[Hyp]GPKGP[Hyp]GD[Hyp]GD[Hyp]GD[Hyp]GP[Hyp]GD[Hyp]G (nT=14) [4sbG-gap4], in data set [1], the binding result is “binds”. With P[Hyp]GP[Hyp]GP[Hyp]GP[Hyp]GPKGPKGPKGPKGP[Hyp]GP[Hyp]GD[Hyp]GD[Hyp]GD[Hyp]GD[Hyp] (nT=14, printed without the last Gly) [4sb-OKD], in data set [2], the binding result is recorded as “binds”. On to PKGPKGPKGP[Hyp]GP[Hyp]GD[Hyp]GD[Hyp]GD[Hyp]GP[Hyp]GP[Hyp]GP[Hyp] (not fully specified (C-terminus), nT=11, printed without the last Gly) [3sb-KDO], for which the binding result in data set [3] was “binds”.

Consider P[Hyp]GP[Hyp]GPKGPKGPKGPKGP[Hyp]GP[Hyp]GD[Hyp]GD[Hyp]GD[Hyp]GD[Hyp]GP[Hyp]GP[Hyp]G (nT=14) [4sbG-OKDO], for which the binding result in data set [4] was “binds”. With P[Hyp]GP[Hyp]GP[Hyp]GPKGPKGPKGP[Hyp]GP[Hyp]GD[Hyp]GD[Hyp]GD[Hyp] (nT=11, printed without the last Gly) [3sb-OKD], the binding result in the data set “AUC, CD, self-assembly” is “binds”. With P[Hyp]GP[Hyp]GPKGPKGPKGP[Hyp]GPKGP[Hyp]GP[Hyp]GD[Hyp]GP[Hyp]GD[Hyp]GD[Hyp]GD[Hyp]G (nT=14) [4sbG-OKD2ctrl], the binding result in data set [5] was “binds”. On to P[Hyp]GPKGPKGPKGPKGP[Hyp]GP[Hyp]GD[Hyp]GD[Hyp]GD[Hyp]GD[Hyp]GP[Hyp]GP[Hyp]GP[Hyp]G (nT=14) [4sbG-KDO2], for which the binding result in [6] is “binds”.

B1: 4sbG-OKD ("OKD") (peptide)
peptide: PXGPXGPXGPXGPKGPKGPKGPKGPXGPXGDXGDXGDXGDXG
modifications: O = 4-hydroxyproline (Hyp)
notes: Synthetic 42-residue collagen-mimetic peptide (nT=14)
For B1, in [7], the “Average oligomerization by AUC” value is > 188 -mer. For the protein PXGPXGPXGPKGPKGPKGPKGPXGPXGDXGDXGDXGDXGPXG (O = 4-hydroxyproline (Hyp), nT=14) [4sbG-OKD2], in data set [4], the binding result is “binds”.

B2: OKD2-OKD2 (peptide)
chain 1: PXGPXGPXGPKGPKGPKGPKGXXGPXGDXGDXGDXGDXGPXG
chain 2: PXGPXGPCGPKGPKGPKGPKGPXGPXGDXGDXGDXGDXGPXG
modifications: O = 4-hydroxyproline (Hyp); Cys in an interstrand disulfide bridge with Hcy of the other chain; O = 4-hydroxyproline (Hyp); Hcy = homocysteine, in an interstrand disulfide bridge with Cys of the other chain
notes: Disulfide-linked dimer (nT 14-14)
With B2, in data set [8], the binding result is “binds”. For the protein PXGPXGPXGPKGPKGPKGPKGXXGPXGDXGDXGDXGDXGPXG (O = 4-hydroxyproline (Hyp); Hcy = homocysteine, Single Hcy-bearing peptide, nT=14) [OKD2-h22], the binding result in the data set “CD, DLS, self-assembly” was “binds”. On the same count and under the same terms, for PXGPXGPCGPKGPKGPKGPKGPXGPXGDXGDXGDXGDXGPXG (O = 4-hydroxyproline (Hyp), Single Cys-bearing peptide, nT=14) [OKD2-C8] the value was “binds”.

Values taken from patent US20220112269A1 (WISCONSIN ALUMNI RESEARCH FOUNDATION, published 2022).
